Ends that are not written are not given here.
Target: T1, natural proline-rich peptide ligand C3G, PPPALPPKKR (peptide SEQ ID NO: 11)
T1 peptide: PPPALPPKKR-NH2
Test: fluorescence-based titration (excitation 300 nm, emission 348 nm), 25 C, 0.5 uM protein, 1:1 complex assumed
Experimental: The ligated product is marked with an asterisk. […] The ligation product was by far the main product and could be easily isolated by semipreparative HPLC. Referring to FIG. 6B, characterization of the product by ES-MS confirmed the identity of the SH3 ligated domain. The ligated SH3 domain was readily purified by HPLC and refolded by flash dilution in 20 mM sodium phosphate, 100 mM NaCl at pH 7.2. The ligand binding activity of the synthetic SH3 domain was evaluated using a fluorescence-based titration assay. […] Referring to FIG. 6C, the equilibrium dissociation constant for binding of the synthetic SH3 domain to the natural proline-rich peptide ligand C3G i.e., […] (peptide SEQ ID NO: 11), was 0.9 μM. […]
Fluorescence-based Ligand Binding Assay. The equilibrium dissociation binding constant of synthetic SH3 domain for ligand SEQ ID NO: 11 was obtained using a fluorescence-based titration assay. […] Excitation was at 300 nm with a 2.5 nm slit and the fluorescence emission was monitored at 348 nm through a 5 nm slit. […] The dissociation constant was determined by changes in the fluorescence of the protein solution upon addition of the corresponding peptide ligand at defined concentrations; calculations were made assuming formation of a 1:1 complex. […]

B1: synthetic c-Crk N-terminal SH3 domain obtained by native chemical ligation of peptide thioester SEQ ID NO: 9 and peptide SEQ ID NO: 10 (other)
chain: AEYVRALFDFNGNDEEDLPFKKGCILRIRDKPEEQWWNAEDSEGKRGMIPVPYVEKYG
modifications: N-terminal acetyl (Ac-AEYV...); C-terminal amide implied (peptide SEQ ID NO: 10 made on Rink-amide resin); Cys introduced at the N-terminus of SEQ ID NO: 10 (ligation site); the -SEt thioester of SEQ ID NO: 9 is lost on ligation
notes: used at 0.5 uM in 20 mM sodium phosphate, 100 mM NaCl, pH 7.2; ESMS found 6894.1 Da (calculated 6891.7 Da); also called ligated SH3 domain; synthetic SH3 domain
Kd: 900 nM

From US20070129537A1 (University of California, published 2007)
